These results are taken from patent US20260043816A1 (AC IMMUNE, published 2026).

Assay [1] deals with T1, TDP-43 peptide consisting of amino acid sequence (SEQ ID NO: 5) (comprising pS375 and pS379) (human).
T1 construct: also called target peptide
T1 peptide: GNNSY[pS]GSN[pS]GAAIG
Nature of the assay: SPR, antibody on chip, peptide analyte. The method, then: For antibodies ACI-8070-942.30D12-Ab1 and ACI-7071-809F12-Ab1-rec2 affinity was measured on Biacore 5200 instrument (Cytiva, Switzerland). The instrument was primed with running buffer HBS-P+ (10× HBS-P+ diluted to 1× in Milli-Q water) and flow-cells (Fc) 1-4 of a CM7 Series S sensor chip (Cytiva, 29147020) were activated with a fresh solution of EDC/NHS (Amine Coupling Kit type 2, BR100633, Cytiva) 1:1 ratio of both reagents at 10 μL/min for 420 sec and polyclonal rabbit anti-mouse IgG antibody (Cytiva, 29215281) was immobilized at […] in 10 mM sodium acetate pH 5.0 for 420 sec. Next, all Fc were quenched with 1 M ethanolamine (Cytiva, BR100633) for 420 sec. Immobilization levels were evaluated following ethanolamine quenching. A mouse IgG2a isotype control antibody and ACI-8070-942.30D12-Ab1 were captured on Fc 1 and Fc 2, respectively. Antibodies were diluted in 10 mM sodium acetate pH5.5 to a final concentration of 50 μg/mL and injected using the aim immobilization level functionality with a target of 10000 RU. […] Results obtained from single-cycle kinetics were double-referenced using the blank Fc 1 and buffer cycles and evaluated using the Biacore Insight Evaluation software (Cytiva). […]
On the technique in general: In SPR one partner is held on a chip, and binding of the other changes the refractive index at the surface.

The target in assay [2] is T2, recombinant full length TDP-43 (SEQ ID NO: 1, FL TDP-43) (human, UniProt Q13148 1-414).
T2 construct: also called recombinant human soluble FL TDP-43; soluble human TDP-43
Nature of the assay: pairing sandwich ELISA, antibody coated as capture, FL TDP-43 titrated. The method, then:
The capacity of antibodies to bind phospho TDP-43 and TDP-43 was determined using a sandwich enzyme-linked immunosorbent assay (ELISA), where each antibody was paired with a second TDP-43 antibody previously characterized for TDP-43 binding and performance in sandwich immunoassays, ACI-7071-809F12-Ab1-rec2 (as described in WO2020234473) or ACI-7069-636E5-Ab1 (as described in WO2020234473). ELISA plates (Nunc™ Edge™ 96-Well, Non-Treated, Flat-Bottom Microplate, ThermoFisher Scientific, Denmark) were coated with 5 μg/mL of anti-phospho TDP-43 or anti-TDP-43 antibodies in carbo/bicarbonate buffer, overnight at 4° C. Plates were then washed with 0.05% Tween-20/PBS and blocked with 1% bovine serum albumin (BSA) in 0.05% Tween-20/PBS for 1 hour at 37° C. The plates were then washed again as described above.
Serial-dilutions of target peptide or protein were then added to the plates. For assays with anti-phospho TDP-43 antibodies, one of four peptide conjugates (peptides 11, 23, 28, or 29) each composed of two TDP-43 sequences, one phosphorylated and one non-phosphorylated, conjugated together with a Trioxatridecan-succinamic acid linker (Ttds, binding regions and sequences shown in Table 4) were used. Peptides 11, 23, 28, and 29 were added in a 10-fold serial dilution starting at 0.5 μM. For assays with TDP-43 antibodies only, recombinant full length TDP-43 (SEQ ID NO: 1, FL TDP-43) was diluted 3-fold from 21.9 pM. Plates were incubated for 1 hour at 37° C., and then washed. […] PEG-biotinylated phospho TDP-43 or TDP-43 antibodies were then respectively added to the wells and incubated for 1 hour at 37° C., after which the plates were washed. Horseradish peroxidase (HRP)-conjugated streptavidin (R&D Systems, Switzerland) was added at 1/200 dilution in 1% BSA and 0.05% Tween-20/PBS for 45 min at room temperature. […] The plate was read at 450 nm using an ELISA plate reader (Tecan, Switzerland).
A general note: An ELISA detects its analyte on a solid surface through an enzyme-linked reagent.

A further assay addresses T3, Peptide 29 (human, phosphoserine at pS409 and pS410 (human TDP-43 numbering, in the SEQ ID NO: 9 part); Trioxatridecan-succinamic acid (Ttds) linker between SEQ ID NO: 7 and SEQ ID NO: 9).
T3 peptide: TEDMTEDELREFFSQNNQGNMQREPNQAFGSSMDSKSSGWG
Put plainly: SPR Biacore 8K, antibody captured, peptide analyte, single-cycle kinetics, 1:1 fit. The method, then:
(§1) Each cycle started with the non-covalent capture of the antibody which were diluted in running buffer to a final concentration of 5 μg/mL and injected for 120 sec with a flow rate of 10 μL/min. Antibodies being measured were captured in channels […], leaving Fc 1 as a blank Fc. Capture levels were evaluated following a 120 sec stabilization period after each antibody injection. ACI-7071-809F12-Ab1-rec2 was used as control, binding to the non-phosphorylated sequences represented in peptides 28 and 29.
(§2) Injections of peptides 28 or 29 were performed using single-cycle kinetics with increasing concentrations ranging from 1.2 to 100 nM prepared as a 3-fold serial dilution. Injections were performed with contact times of 300 sec/injection at a flow rate of 30 μL/min. A dissociation phase of 900 sec followed the final injection. Sensor surface was regenerated by two injection of 10 mM Glycine-HCl pH 1.7 at a flow rate of 10 μL/min for 60 sec, followed by a stabilization period of 120 sec. Results obtained from single-cycle kinetics were double-referenced using the blank Fc 1 and buffer cycles and evaluated by Biacore 8K evaluation software (Cytiva). The following kinetic parameters were obtained using the 1:1 binding fit model with variable Reflective Index (RI): association rate constant (ka), dissociation rate constant (kd), affinity constant (KD) and saturation response (Rmax).

The next assay has as its target T4, Peptide 28 (human, phosphoserine at pS403 and pS404 (human TDP-43 numbering, in the SEQ ID NO: 8 part); Trioxatridecan-succinamic acid (Ttds) linker between SEQ ID NO: 7 and SEQ ID NO: 8).
T4 peptide: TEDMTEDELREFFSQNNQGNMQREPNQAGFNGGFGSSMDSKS
Described as above. The method, then: as §1, §2

Square brackets hold non-standard residues; d marks the D form. Ends that are not written are not given here. pS = N[C@@H](COP(=O)(O)O)C(=O)O

B1: ACI-7071-809F12-Ab1-rec2 (as described in WO2020234473) (antibody, V domains shown)
VH: QVQLKESGPGLVAPSQSLSITCTVSGFSLNRNGVQWVRQPPGKGLEWLGVIWPGGSTNCNSALMSRLSISKDNSKSQVFLKMNSLHTDDTGIYYCARVGGNYVWDYNNYAWGQGTLVTVSA
VL: DVLMTQTPLSLPVSLGDQASISCRSSQNIVHSIGNTYLEWYLQKPGQSPKLLIYKVSNRFSGVPDRFSGSGSGTDFTLKISRVEAEDLGVYYCFQGSHVPYTFGGGTKLEIR
notes: also called 809F12D8
In general, EC50 refers to the concentration that produces a half-maximal response. In general, Kd refers to the concentration at which binding is half-saturated. In general, koff refers to the rate constant with which the complex falls apart. A lower koff goes with slow dissociation. One may read the kon as a measure of how fast the partners come together. A low value points to slower complex formation. Take B1: the binding result in assay [1] was “no binding”. For the same molecule, the concentration for a half-maximal effect (EC50) in assay [2] was 0.181 nM. In the assay with Peptide 29, this molecule yielded an equilibrium dissociation constant (Kd) of 7 nM, a koff of 0.00343 s⁻¹ and an on-rate constant (kon) of 490000 M⁻¹ s⁻¹. In the assay with Peptide 28, this molecule displayed a Kd of 4.5 nM, an off-rate constant (koff) of 0.00231 s⁻¹ and a kon of 514000 M⁻¹ s⁻¹.
